B1: Cell division control protein 45 (Saccharomyces cerevisiae), Q08032 (parent)
chain: MYYGISQFSEAYNKILRNSSSHSSCQLVIFVSCLNIDALCATKMLSLLFKKQLVQSQIVPIFGYSELRRHYSQLDDNINSLLLVGFGGVIDLEAFLEIDPQEYVIDTDEKSGEQSFRRDIYVLDAHRPWNLDNIFGSQIIQCFDDGTVDDTLGEQKEAYYKLLELDEESGDDELSGDENDNNGGDDEATDADEVTDEDEEDEDETISNKRGNSSIGPNDLSKRKQRKKQIHEYEGVLEEYYSQGTTVVNSISAQIYSLLSAIGETNLSNLWLNILGTTSLDIAYAQVYNRLYPLLQDEVKRLTPSSRNSVKTPDTLTLNIQPDYYLFLLRHSSLYDSFYYSNYVNAKLSLWNENGKKRLHKMFARMGIPLSTAQETWLYMDHSIKRELGIIFDKNLDRYGLQDIIRDGFVRTLGYRGSISASEFVEALTALLEVGNSTDKDSVKINNDNNDDTDGEEEEDNSAQKLTNLRKRWVSNFWLSWDALDDRKVELLNRGIQLAQDLQRAIFNTGVAILEKKLIKHLRIYRLCVLQDGPDLDLYRNPLTLLRLGNWLIECCAESEDKQLLPMVLASIDENTDTYLVAGLTPRYPRGLDTIHTKKPILNNFSMAFQQITAETDAKVRIDNFESSIIEIRREDLSPFLEKLTLSGLL
partner: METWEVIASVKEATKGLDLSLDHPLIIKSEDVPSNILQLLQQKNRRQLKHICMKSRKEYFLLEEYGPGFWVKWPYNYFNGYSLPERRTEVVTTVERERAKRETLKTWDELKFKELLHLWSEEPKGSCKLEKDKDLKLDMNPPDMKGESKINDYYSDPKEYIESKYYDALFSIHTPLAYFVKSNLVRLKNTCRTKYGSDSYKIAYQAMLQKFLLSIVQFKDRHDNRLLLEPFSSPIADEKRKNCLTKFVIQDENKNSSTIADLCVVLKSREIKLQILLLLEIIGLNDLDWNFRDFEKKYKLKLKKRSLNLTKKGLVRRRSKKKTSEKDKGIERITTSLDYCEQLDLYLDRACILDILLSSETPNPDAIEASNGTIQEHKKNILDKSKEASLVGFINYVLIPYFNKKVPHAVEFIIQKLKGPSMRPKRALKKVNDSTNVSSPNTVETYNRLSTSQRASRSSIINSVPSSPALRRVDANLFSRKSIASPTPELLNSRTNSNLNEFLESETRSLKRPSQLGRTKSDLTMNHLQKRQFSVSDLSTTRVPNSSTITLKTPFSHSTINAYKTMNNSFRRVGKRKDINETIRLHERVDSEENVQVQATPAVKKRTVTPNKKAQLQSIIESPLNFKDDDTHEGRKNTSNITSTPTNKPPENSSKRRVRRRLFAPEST

Variants of: B1
Conditions: with sld3_yeast SLD3, P53135

Variant | effect of a mutation on the interaction
D91N;D124N;D149N;D150N | disrupting interaction strength

From IntAct's records for PubMed 25126958
